Reference: patent US20250066503A1, “CELL INJURY INDUCING THERAPEUTIC DRUG FOR USE IN CANCER THERAPY” (CHUGAI SEIYAKU KABUSHIKI KAISHA, priority 2016, published 2025)

Biological target: T1, human GPC3 (human, UniProt P51654 25-563)
T1 construct: range 25-563; soluble analyte; also called soluble human GPC3; glypican 3
Test: SPR

T1 sequence (P51654 25-563 limits assumed): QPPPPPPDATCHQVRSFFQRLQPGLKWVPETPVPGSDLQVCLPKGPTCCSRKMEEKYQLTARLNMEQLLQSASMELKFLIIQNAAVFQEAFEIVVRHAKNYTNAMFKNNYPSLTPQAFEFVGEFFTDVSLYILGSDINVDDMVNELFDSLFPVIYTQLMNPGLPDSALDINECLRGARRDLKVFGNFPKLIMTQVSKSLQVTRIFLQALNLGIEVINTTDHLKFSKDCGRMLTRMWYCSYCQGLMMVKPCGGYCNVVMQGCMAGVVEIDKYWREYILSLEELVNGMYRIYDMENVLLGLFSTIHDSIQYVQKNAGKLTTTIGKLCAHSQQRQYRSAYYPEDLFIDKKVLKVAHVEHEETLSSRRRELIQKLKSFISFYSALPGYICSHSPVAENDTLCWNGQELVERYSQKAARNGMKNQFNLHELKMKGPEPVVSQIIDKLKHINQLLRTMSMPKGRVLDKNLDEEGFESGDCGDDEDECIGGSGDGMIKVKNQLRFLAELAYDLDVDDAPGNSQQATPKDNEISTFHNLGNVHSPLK

Binder	Kd
GCH057-G1dh/none-Hi-Kn010G3/L0000-k0 (antibody, V domains shown, one-arm) VH: QVQLVQSGAEVKKPGASVTVSCKASGYTFTDYEMHWIRQPPGEGLEWIGAIDGETPDTAYSEKFEGRVTLTADKSTSTAYMELSSLTSEDTAVYYCTRFYSYTYWGQGTLVTVSS VL: DIVMTQSPLSLPVTPGEPASISCRSSQSLVHSNRNTYLHWYQQKPGQAPRLLIYKVSNRFSGVPDRFSGSGSGTDFTLKISRVEAEDVGVYYCGQGTQVPYTFGQGTKLEIKR	5.61 nM
GCH057-G1dh/none-Hi-Kn010G3/L0222-k0 (antibody, V domains shown, one-arm) VH: QVQLVQSGAEVKKPGASVTVSCKASGYTFTDYEMHWIRQPPGEGLEWIGAIDGETPDTAYSEKFEGRVTLTADKSTSTAYMELSSLTSEDTAVYYCTRFYSYTYWGQGTLVTVSS VL: DIVMTQSPLSLPVTPGEPASISCRSSQSPVHSNRNTYIQWYQQKPGQAPRLLIYKVSNRFSGVPDRFSGSGSGTDFTLKISRVEAEDVGVYYCYQGTQVPYTFGQGTKLEIKR	0.00185 nM
GCH059-G1dh/none-Hi-Kn010G3/L0000-k0 (antibody, V domains shown, one-arm) VH: QVQLVQSGAEVKKPGASVTVSCKASGYTFTDYEMHWIRQPPGEGLEWIGAIDGETPDTAYSQKFEGRVTLTADKSTSTAYMELSSLTEEDTAVYYCTRFYSYTYWGQGTLVTVSS VL: DIVMTQSPLSLPVTPGEPASISCRSSQSLVHSNRNTYLHWYQQKPGQAPRLLIYKVSNRFSGVPDRFSGSGSGTDFTLKISRVEAEDVGVYYCGQGTQVPYTFGQGTKLEIKR	5.7 nM
GCH060-G1dh/none-Hi-Kn010G3/L0222-k0 (antibody, V domains shown, one-arm) VH: QVQLVQSGAEVKKPGASVTVSCKASGYTFEDYEMHWIRQPPGEGLEWIGAIDGETPDTAYSQKFEGRVTLTADKSTSTAYMELSSLTEEDTAVYYCTRFYSYTYWGQGTLVTVSS VL: DIVMTQSPLSLPVTPGEPASISCRSSQSPVHSNRNTYIQWYQQKPGQAPRLLIYKVSNRFSGVPDRFSGSGSGTDFTLKISRVEAEDVGVYYCYQGTQVPYTFGQGTKLEIKR	0.000642 nM
GCH061-G1dh/none-Hi-Kn010G3/L0000-k0 (antibody, V domains shown, one-arm) VH: QVQLVQSGAEVKKPGASVKVSCKASGYTFTDYEMHWVRQAPGQGLEWIGAIDGKTPDTAYSQKFKGRVTLTADKSTSTAYMELSSLTSEDTAVYYCTRFYSYTYWGQGTLVTVSS VL: DIVMTQSPLSLPVTPGEPASISCRSSQSLVHSNRNTYLHWYQQKPGQAPRLLIYKVSNRFSGVPDRFSGSGSGTDFTLKISRVEAEDVGVYYCGQGTQVPYTFGQGTKLEIKR	5.13 nM
GCH062-G1dh/none-Hi-Kn010G3/L0000-k0 (antibody, V domains shown, one-arm) VH: QVQLVQSGAEVKKPGASVKVSCKASGYTFTDYEMHWIRQPPGQGLEWMGAIDGKTPDTAYSQKFKGRVTLTADKSTSTAYMELSSLTSEDTAVYYCTRFYSYTYWGQGTLVTVSS VL: DIVMTQSPLSLPVTPGEPASISCRSSQSLVHSNRNTYLHWYQQKPGQAPRLLIYKVSNRFSGVPDRFSGSGSGTDFTLKISRVEAEDVGVYYCGQGTQVPYTFGQGTKLEIKR	3.73 nM
GCH064-G1dh/none-Hi-Kn010G3/L0000-k0 (antibody, V domains shown, one-arm) VH: QVQLVQSGAEVKKPGASVKVSCKASGYTFTDYEMHWIRQPPGQGLEWIGAIDGKTPDTAYSQKFKGRVTLTADKSTSTAYMELSSLRSEDTAVYYCTRFYSYTYWGQGTLVTVSS VL: DIVMTQSPLSLPVTPGEPASISCRSSQSLVHSNRNTYLHWYQQKPGQAPRLLIYKVSNRFSGVPDRFSGSGSGTDFTLKISRVEAEDVGVYYCGQGTQVPYTFGQGTKLEIKR	4.14 nM
GCH065-G1dh/none-Hi-Kn010G3/L0000-k0 (antibody, V domains shown, one-arm) VH: QVQLVQSGAEVKKPGASVTVSCKASGYTFTDYEMHWIRQPPGEGLEWIGAIDGPTPDTAYSEKFKGRVTLTADKSTSTAYMELSSLTSEDTAVYYCTRFYSYTYWGQGTLVTVSS VL: DIVMTQSPLSLPVTPGEPASISCRSSQSLVHSNRNTYLHWYQQKPGQAPRLLIYKVSNRFSGVPDRFSGSGSGTDFTLKISRVEAEDVGVYYCGQGTQVPYTFGQGTKLEIKR	1.41 nM
GCH065-G1dh/none-Hi-Kn010G3/L0201-k0 (antibody, V domains shown, one-arm) VH: QVQLVQSGAEVKKPGASVTVSCKASGYTFTDYEMHWIRQPPGEGLEWIGAIDGPTPDTAYSEKFKGRVTLTADKSTSTAYMELSSLTSEDTAVYYCTRFYSYTYWGQGTLVTVSS VL: DIVMTQSPLSLPVTPGEPASISCRSSQPPVHSNRNTYLHWYQQKPGQAPRLLIYKVSNRFSGVPDRFSGSGSGTDFTLKISRVEAEDVGVYYCGQGTQVPYTFGQGTKLEIKR	0.0774 nM
GCH066-G1dh/none-Hi-Kn010G3/L0000-k0 (antibody, V domains shown, one-arm) VH: QVQLVQSGAEVKKPGASVTVSCKASGYTFTDYEMHWIRQPPGEGLEWIGAIDGWTPDTAYSEKFKGRVTLTADKSTSTAYMELSSLTSEDTAVYYCTRFYSYTYWGQGTLVTVSS VL: DIVMTQSPLSLPVTPGEPASISCRSSQSLVHSNRNTYLHWYQQKPGQAPRLLIYKVSNRFSGVPDRFSGSGSGTDFTLKISRVEAEDVGVYYCGQGTQVPYTFGQGTKLEIKR	4.29 nM
GCH067-G1dh/none-Hi-Kn010G3/L0000-k0 (antibody, V domains shown, one-arm) VH: QVQLVQSGAEVKKPGASVTVSCKASGYTFTDYEMHWIRQPPGEGLEWIGAIDGYTPDTAYSEKFKGRVTLTADKSTSTAYMELSSLTSEDTAVYYCTRFYSYTYWGQGTLVTVSS VL: DIVMTQSPLSLPVTPGEPASISCRSSQSLVHSNRNTYLHWYQQKPGQAPRLLIYKVSNRFSGVPDRFSGSGSGTDFTLKISRVEAEDVGVYYCGQGTQVPYTFGQGTKLEIKR	5.24 nM
GCH068-G1dh/none-Hi-Kn010G3/L0000-k0 (antibody, V domains shown, one-arm) VH: QVQLVQSGAEVKKPGASVTVSCKASGYTFTDYEMHWIRQPPGEGLEWIGAIDGKTPDTAYSEKFKGRVTLTADKSTSTAYMELSSLTSEDTAVYYCTRFYSYTYWGQGTLVTVSS VL: DIVMTQSPLSLPVTPGEPASISCRSSQSLVHSNRNTYLHWYQQKPGQAPRLLIYKVSNRFSGVPDRFSGSGSGTDFTLKISRVEAEDVGVYYCGQGTQVPYTFGQGTKLEIKR	6.23 nM
GCH073-G1dh/none-Hi-Kn010G3/L0000-k0 (antibody, V domains shown, one-arm) VH: QVQLVQSGAEVKKPGASVTVSCKASGYTFTDYEMHWIRQPPGEGLEWIGAIDGPTPDTAYSQKFEGRVTLTADKSTSTAYMELSSLTSEDTAVYYCTRFYSYTYWGQGTLVTVSS VL: DIVMTQSPLSLPVTPGEPASISCRSSQSLVHSNRNTYLHWYQQKPGQAPRLLIYKVSNRFSGVPDRFSGSGSGTDFTLKISRVEAEDVGVYYCGQGTQVPYTFGQGTKLEIKR	2 nM
GCH073-G1dh/none-Hi-Kn010G3/L0011-k0 (antibody, V domains shown, one-arm) VH: QVQLVQSGAEVKKPGASVTVSCKASGYTFTDYEMHWIRQPPGEGLEWIGAIDGPTPDTAYSQKFEGRVTLTADKSTSTAYMELSSLTSEDTAVYYCTRFYSYTYWGQGTLVTVSS VL: DIVMTQSPLSLPVTPGEPASISCRSSQPLVHSNRNTYLHWYQQKPGQAPRLLIYKVSNRFSGVPDRFSGSGSGTDFTLKISRVEAEDVGVYYCGQGTQVPYTFGQGTKLEIKR	0.91 nM
GCH073-G1dh/none-Hi-Kn010G3/L0201-k0 (antibody, V domains shown, one-arm) VH: QVQLVQSGAEVKKPGASVTVSCKASGYTFTDYEMHWIRQPPGEGLEWIGAIDGPTPDTAYSQKFEGRVTLTADKSTSTAYMELSSLTSEDTAVYYCTRFYSYTYWGQGTLVTVSS VL: DIVMTQSPLSLPVTPGEPASISCRSSQPPVHSNRNTYLHWYQQKPGQAPRLLIYKVSNRFSGVPDRFSGSGSGTDFTLKISRVEAEDVGVYYCGQGTQVPYTFGQGTKLEIKR	0.035 nM
GCH094-G1dh/none-Hi-Kn010G3/L0000-k0 (antibody, V domains shown, one-arm) VH: QVQLVQSGAEVKKPGASVTVSCKASGYTFTDYEMHWVRQAPGEGLEWMGAIDGETPDTAYSEKFKGRVTLTADKSTSTAYMELSSLTSEDTAVYYCTRFYSYTYWGQGTLVTVSS VL: DIVMTQSPLSLPVTPGEPASISCRSSQSLVHSNRNTYLHWYQQKPGQAPRLLIYKVSNRFSGVPDRFSGSGSGTDFTLKISRVEAEDVGVYYCGQGTQVPYTFGQGTKLEIKR	5.89 nM
